Source: patent US20170145472

Target: T1, HCV NS3 helicase (Hepatitis C virus) (UniProt P26663)
T1 sequence: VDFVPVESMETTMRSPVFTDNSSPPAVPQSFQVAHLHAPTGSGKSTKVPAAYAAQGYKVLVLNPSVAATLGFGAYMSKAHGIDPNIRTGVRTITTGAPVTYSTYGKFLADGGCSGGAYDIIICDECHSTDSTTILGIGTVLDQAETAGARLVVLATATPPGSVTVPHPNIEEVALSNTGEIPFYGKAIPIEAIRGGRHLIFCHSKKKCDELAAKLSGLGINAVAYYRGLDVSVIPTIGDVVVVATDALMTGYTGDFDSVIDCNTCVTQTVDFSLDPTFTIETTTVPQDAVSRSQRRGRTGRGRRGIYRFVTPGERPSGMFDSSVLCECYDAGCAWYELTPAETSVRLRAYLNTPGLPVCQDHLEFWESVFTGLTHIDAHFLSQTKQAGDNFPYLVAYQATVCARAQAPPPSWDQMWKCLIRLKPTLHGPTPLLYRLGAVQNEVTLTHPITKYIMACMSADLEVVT

For “GTGGGTAGGGCGGGTTGGTGGCGACGGCAGCGAGGCAGAGGAGCAGAGGGAGCA / GCCTCGCTGCCGTCGCCACCAACCCGCCC [ON1/ON2 duplex substrate]”, the activity (fold luminescence enhancement) was 4.5.
